From patent US20240336661A1, “PEPTIDES DERIVED FROM RUMINOCOCCUS TORQUES” (University of Copenhagen, priority 2021, published 2024)

Key:
mouse 3T3-L1 fibroblasts = experiment: Gene expression in 3T3-L1 fibroblasts (q-PCR); format: cell-based; conditions: 3T3-L1 fibroblasts
Experimental: 3T3-L1 cells (a murine fibroblast cell line) were split onto 12-well plates and grown to confluence before inducing differentiation by treatment with 86 nM insulin, 0.1 μM dexamethasone, and 250 μM methyl isobutylxanthine. Two days after induction, cells were switched to an inducing medium in the presence of recombinant RUCILPs, or commercial recombinant irisin (Sigma, #SRP8039-10UG and Phoenix pharmaceuticals, #067-29A), or phosphate buffered saline (PBS) for two days. Subsequently, cells were maintained in 86 nM insulin in the presence of indicated concentrations of recombinant RUCILPs, 21-AABP1, commercial recombinant irisin, or PBS for four days with medium change every other day for 6 days. Cells were then harvested for q-PCR analysis as described in standard protocol for gene expression analysis.
Total RNA from cells or tissues was extracted according to the instructions provided by manufacturer of RNeasy mini kit (Qiagen) using QIAzol lysis reagent (Qiagen), followed by measurements of RNA purities and concentrations by NanoDrop 2000 spectrophotometer (Thermo Scientific). A total of 1 μg of RNA was used for the reverse transcription to cDNA using the iScript™ Select cDNA Synthesis Kit (Bio-Rad Laboratories). The samples were subjected to real-time PCR using the LC480 system (Roche Diagnostics) after premixing with Precision®PLUS Master Mix (Primer Design). For each indicated gene, samples were run in duplicate in a 384-well plate and ΔΔCt method was used for quantifying the expressions after normalization to the housekeeping Rpl36 or GAPDH gene.
Firstly, we tested the dose-response effects of RUCILPs on gene expression in mouse fibroblasts (3T3-L1), mouse […] (MLO-Y4), and mouse myoblasts (C2C12). To estimate effect on adipocyte browning, we measured expression of Ucp1, Prdm16, Pgc1a, Dio2 and Cox2, and expression of AdipoQ was measured as a marker of white adipocytes. As a marker of bone formation, we measured expression of Sclerostin; and markers of myotube formation included expression of Heyl, Sox3, and Stat3.

integrin receptor = experiment: Integrin inhibitor pre-treatment in RUCILP2 cellular studies; format: cell-based; conditions: 10 μM for 10 minutes before RUCILP2
Experimental: Human white pre-adipocytes were cultured until 80% confluent and switched into differentiation media (with 0.3 ml/ml fetal calf serum, 8 μg/ml d-biotin, 0.5 μg/ml insulin, 400 ng/ml dexamethasone). The differentiation process to mature adipocytes was completed after 12-14 days. The treatment of RUCILP2 and irisin started from the third day of differentiation. For integrin complex inhibition, cells were treated with 10 μM of CycloRGDyK (Selleckchem, #S7844) for 10 minutes and washed with PBS before treated with RUCILP2 and irisin, respectively. Cells were harvested after 14 days of differentiation and thermogenesis gene were quantified by quantitative polymerase chain reaction (q-PCR).
Two days after induction, cells were switched to inducing medium in the presence of 15 nM recombinant RUCILP2, or commercial recombinant irisin (Sigma, #SRP8039-10UG and Phoenix pharmaceuticals, #067-29A), or saline for two days. After that, cells were maintained in 86 nM insulin and 1 nM T3 in the presence of indicated concentrations of recombinant RUCILP2 or commercial recombinant irisin, or saline for four days with medium change every other day. For inhibition of the integrin complex, cells were treated with 10 μM of cRGDyK for 10 minutes before treatment with recombinant RUCILP2 or commercial recombinant irisin or saline every other day during 6 days of differentiation. […]

integrin αV/β5 receptor = integrin αV/β5 receptor (Homo sapiens, UniProt P06756+P18084); experiment: SPOT peptide microarray (μSPOT) binding assay; conditions: for relative integrin αV/β5 binding in 15-mer peptide library screening: His-tag integrin αV/β5 2.5 nM, semi-quantitative; for relative integrin αV/β5 binding, truncation scanning library of 19-mer epitopes: integrin αV/β5 2.5 nM
Sequence of integrin αV/β5 receptor (P06756 31-992 limits assumed): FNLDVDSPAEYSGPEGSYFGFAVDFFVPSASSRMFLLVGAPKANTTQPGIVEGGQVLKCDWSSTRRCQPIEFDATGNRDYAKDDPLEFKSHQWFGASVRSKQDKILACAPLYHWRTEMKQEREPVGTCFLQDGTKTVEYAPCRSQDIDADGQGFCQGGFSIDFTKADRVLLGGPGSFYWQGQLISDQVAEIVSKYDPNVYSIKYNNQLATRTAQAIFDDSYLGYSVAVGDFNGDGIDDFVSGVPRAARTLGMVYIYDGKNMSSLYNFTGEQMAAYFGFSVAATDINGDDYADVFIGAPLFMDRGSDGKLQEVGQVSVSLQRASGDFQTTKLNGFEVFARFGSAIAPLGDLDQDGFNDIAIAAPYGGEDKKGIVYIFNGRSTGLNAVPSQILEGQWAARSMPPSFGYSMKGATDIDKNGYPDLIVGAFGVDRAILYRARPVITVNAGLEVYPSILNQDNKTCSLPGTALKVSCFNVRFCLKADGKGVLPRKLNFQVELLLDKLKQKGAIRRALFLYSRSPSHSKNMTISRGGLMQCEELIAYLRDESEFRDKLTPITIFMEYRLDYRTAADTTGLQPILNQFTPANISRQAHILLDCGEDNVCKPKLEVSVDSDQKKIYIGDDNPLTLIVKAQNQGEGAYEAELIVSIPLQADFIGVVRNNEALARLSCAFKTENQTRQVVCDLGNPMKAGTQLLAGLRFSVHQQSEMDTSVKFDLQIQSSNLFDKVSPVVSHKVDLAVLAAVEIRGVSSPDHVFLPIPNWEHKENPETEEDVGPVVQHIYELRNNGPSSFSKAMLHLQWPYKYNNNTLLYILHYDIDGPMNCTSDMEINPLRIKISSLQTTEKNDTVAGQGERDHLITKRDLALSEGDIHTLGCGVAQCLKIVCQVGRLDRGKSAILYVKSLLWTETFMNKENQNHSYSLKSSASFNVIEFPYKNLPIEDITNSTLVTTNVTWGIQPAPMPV
Sequence of integrin αV/β5 receptor (P18084 24-719 limits assumed): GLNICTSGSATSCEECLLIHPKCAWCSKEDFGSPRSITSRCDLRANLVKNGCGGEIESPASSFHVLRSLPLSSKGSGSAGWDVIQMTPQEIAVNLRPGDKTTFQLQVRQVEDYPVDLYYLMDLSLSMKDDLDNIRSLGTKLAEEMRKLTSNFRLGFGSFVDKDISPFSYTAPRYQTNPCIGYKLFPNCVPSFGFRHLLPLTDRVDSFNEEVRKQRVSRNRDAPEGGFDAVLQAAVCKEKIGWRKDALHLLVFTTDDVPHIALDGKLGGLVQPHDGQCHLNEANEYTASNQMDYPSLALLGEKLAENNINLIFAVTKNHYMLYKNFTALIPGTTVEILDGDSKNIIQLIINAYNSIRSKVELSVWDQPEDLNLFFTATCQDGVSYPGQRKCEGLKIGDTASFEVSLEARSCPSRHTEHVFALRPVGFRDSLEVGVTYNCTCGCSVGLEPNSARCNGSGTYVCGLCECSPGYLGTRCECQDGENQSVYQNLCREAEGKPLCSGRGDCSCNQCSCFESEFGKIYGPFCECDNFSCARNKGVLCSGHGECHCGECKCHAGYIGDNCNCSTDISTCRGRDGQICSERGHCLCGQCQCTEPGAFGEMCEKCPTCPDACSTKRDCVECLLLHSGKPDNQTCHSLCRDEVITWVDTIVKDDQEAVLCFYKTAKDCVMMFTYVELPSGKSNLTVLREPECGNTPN
Experimental: μSPOT peptide arrays^25 (CelluSpots, Intavis AG, Cologne, Germany) were synthesized using a RePepSL synthesizer (Intavis AG) on acid labile, amino functionalized, cellulose membrane discs (Intavis AG) containing 9-fluorenylmethy-loxycarbonyl-β-alanine (Fmoc-β-Ala) linkers (minimum loading 1.0 μmol/cm). Synthesis was initiated by Fmoc deprotection using 20% piperidine in N-methylpyrrolidone (NMP) (1×2 and 1 ×4 μL, 3 and 5 min, respectively) followed by washing with dimethylforma-mide (DMF, 7×100 μL per disc) and ethanol (EtOH, 3×300 μL per disc). The loading of the discs were reduced to 50%, by using a mixture of Fmoc-Gly-OH and Boc-Gly-OH (0.25 M: 0.25 M in NMP). All couplings were achieved using 1.2 μL of coupling solution consisting of preactivated amino acids (AAs, 0.5 M) with ethyl 2-cyano-2-(hydroxyimino)acetate oxyma (1.5 M) and N,N′-diisopropylcarbodiimide (DIC, 1.1 M) in NMP (2:1:1, AA:oxyma:DIC). The couplings were carried out 6 times (5, 10, 20, 30, 30, and 30 min, respectively), and subsequently, the membrane was capped twice with capping mixture (5% […] in NMP), followed by washes with DMF (7×100 μL per disc). After chain elongation, final Fmoc deprotection was performed with 20% piperidine in NMP (3×4 μL, 5 min each), followed by 6× washes with DMF, subsequent N-terminal acetylation with capping mixture (3×4 μL, 5 min each) and final washes with DMF (7×100 μL per disc) and EtOH (7×200 μL per disc). Dried cellulose membrane discs were transferred to 96 deep-well blocks and were treated with the side-chain deprotection solution consisting of 80% TFA, 12% DCM, 5% H2O, and 3% TIPS (150 μL per well) for 1.5 h at room temperature (rt). Afterward, the deprotection solution was removed, and the discs were solubilized overnight at rt using a solvation mixture containing 88.5% TFA, 4% trifluoromethansufonic acid (TFMSA), 5% H2O, and 2.5% TIPS (250 μL per well). The resulting peptide-cellulose conjugates were precipitated with ice-cold ether (700 μL per well) and spun down at 1000 rpm for 90 min, followed by an additional wash of the formed pellet with ice-cold ether. The resulting pellets were redissolved in DMSO (250 μL per well) to give final stocks, which were transferred to a 384-well plate and printed (in duplicates) on white coated CelluSpots blank slides (76×26 mm, Intavis AG) using a SlideSpotter robot (Intavis AG).
After the peptide array slides were rinsed with 100 mM phosphate buffered saline (PBS) (pH 7.4), the arrays were blocked with 3% bovine serum albumin (BSA) in PBS for >2 h at rt. Subsequently, the arrays were incubated with His-tagged Integrin receptor (2.5 nM) in blocking for 1 h at rt. After 5×1 min washes with blocking buffer the slides were probed with HRP-conjugated 6x-His tag antibody (1:10000, ab184607, abcam) for 0.5 h at rt. Finally, the slides were washed 3×1 min with PBS, 2×1 min with PBST, 2×1 min PBS at rt. The washed arrays visualized using SuperSignal West Femto Maximum Sensitivity Substrate (Thermo Scientific) with Fusion FX SPectra multimodal imaging platform (Vilber). The resulting blots were analyzed using the Array Analyze Software (Active Motif), which defines the error range of each data set by comparing the intensities of each peptide duplicate on the analyzed array.
Prior to the initial screening, we confirmed that the secondary antibody produces no non-specific binding (‘background binding’) to the coated microscopic slide (FIG. 41A). The relative binding affinity of the resulting peptides was then evaluated in a semi-quantitative manner by screening the μSPOT peptide array with recombinantly expressed His-tag integrin αV/β5 (2.5 nM), followed by incubation with a horse radish peroxidase (HRP) conjugated 6x-His antibody (FIG. 41B). […]

Substance | relative integrin αV/β5 binding in 15-mer peptide library screening (integrin αV/β5 receptor) | further results
21-AABP1: the 21-amino acids fragment derived from RUCILP1 (DGTTYSVEVTAVDAAGEESAK; Ruminococcus torques) |  | effects on browning markers Ucp1, Prdm16, Dio2 (mouse 3T3-L1 fibroblasts): non-significant
CycloRGDyK |  | effect of pre-treatment on cellular effects of RUCILP2 (integrin receptor): blocked
SEQ ID NO: 95: C-terminal 15-mer of RUCILP1, residues 74-88, ESAKSEKVEFTTVKK (Ruminococcus torques) | relatively high affinity | 
SEQ ID NO: 165: 15-mer of RUCILP2, residues 70-84, AAGNESVKSEKVTFK (Ruminococcus torques) | significant binding | 
SEQ ID NO: 168: C-terminal 15-mer of RUCILP2, residues 73-87, NESVKSEKVTFKTLK (Ruminococcus torques) | relatively high affinity | 
SEQ ID NO: 169: 19-mer binding epitope of RUCILP1, residues 12-30, ETSAKVSWKNAADGKEAAG (Ruminococcus torques) | binding epitopes | 
SEQ ID NO: 183: 19-mer binding epitope of RUCILP2, residues 12-30, ETSAKASWKNAADGKEAAG (Alanine scanning sequence; (1)..(19) Alanine scanning sequence of RUCILP1) | binding epitopes | 
SEQ ID NO: 235: 9-mer truncation of RUCILP1 epitope, residues 12-20, ETSAKVSWK (Ruminococcus torques) |  | relative integrin αV/β5 binding, truncation scanning library of 19-mer epitopes (integrin αV/β5 receptor): high binding affinity
SEQ ID NO: 268: 9-mer truncation of RUCILP2 epitope, residues 12-20, ETSAKASWK (Ruminococcus torques) |  | relative integrin αV/β5 binding, truncation scanning library of 19-mer epitopes (integrin αV/β5 receptor): high binding affinity
